How the values were obtained:
Assay type in all cases: biochemical
[1] = Carboxylate reductase activity assay (pimelate semialdehyde to heptanedial); details: purified enzyme enhanced by sfp gene product, 2 mM pimelate semialdehyde, 1 mM ATP, 1 mM NADPH, pH 7.5, room temperature, 20 min, against empty vector control
Experimental: The N-terminal His-tagged carboxylate reductase of SEQ ID NO 7 (see Example 4 and FIG. 7F) was assayed using pimelate semialdehyde as substrate. The enzyme activity assay was performed in triplicate in a buffer composed of a final concentration of 50 mM HEPES buffer (pH=7.5), 2 mM pimelate semialdehyde, 10 mM MgCl2, 1 mM ATP and 1 mM NADPH. The enzyme activity assay reaction was initiated by adding purified carboxylate reductase and phosphopantetheine transferase or the empty vector control to the assay buffer containing the pimelate semialdehyde and then incubated at room temperature for 20 min. The consumption of NADPH was monitored by absorbance at 340 nm.

[2] = Carboxylate reductase activity assay (pimelate to pimelate semialdehyde); details: purified enzyme enhanced by sfp gene product, 2 mM pimelate, 1 mM ATP, 1 mM NADPH, pH 7.5, room temperature, 20 min, against empty vector control
Experimental: A sequence encoding a HIS-tag was added to the genes from Segniliparus rugosus and Segniliparus rotundus that encode the carboxylate reductases of SEQ ID NOs: 4 and 7, respectively (see FIGS. 7C and 7F), such that N-terminal HIS tagged carboxylate reductases could be produced. Each of the modified genes was cloned into a pET Duet expression vector along with a sfp gene encoding a HIS-tagged phosphopantetheine transferase from Bacillus subtilis, both under the T7 promoter. Each expression vector was transformed into a BL21[DE3] E. coli host and the resulting recombinant E. coli strains were cultivated at 37° C. in a 250 mL shake flask culture containing 50 mL LB media and antibiotic selection pressure, with shaking at 230 rpm. Each culture was induced overnight at 37° C. using an auto-induction media.
The pellet from each induced shake flask culture was harvested via centrifugation. Each pellet was resuspended and lysed via sonication, and the cell debris was separated from the supernatant via centrifugation. […]
Enzyme activity assays (i.e., from pimelate to pimelate semialdehyde) were performed in triplicate in a buffer composed of a final concentration of 50 mM HEPES buffer (pH=7.5), 2 mM pimelate, 10 mM MgCl2, 1 mM ATP and 1 mM NADPH. […] The consumption of NADPH was monitored by absorbance at 340 nm.

[3] = Carboxylate reductase activity assay (N7-acetyl-7-aminoheptanoate to N7-acetyl-7-aminoheptanal); details: purified enzyme enhanced by sfp gene product, 2 mM N7-acetyl-7-aminoheptanoate, 1 mM ATP, 1 mM NADPH, pH 7.5, room temperature, 20 min, against empty vector control
Experimental: The activity of each of the N-terminal His-tagged carboxylate reductases of SEQ ID NOs: 3, 6, and 7 (see Example 4, and FIGS. 7B, 7E, and 7F) for converting N7-acetyl-7-aminoheptanoate to N7-acetyl-7-aminoheptanal was assayed in triplicate in a buffer composed of a final concentration of 50 mM HEPES buffer (pH=7.5), 2 mM N7-acetyl-7-aminoheptanoate, 10 mM MgCl2, 1 mM ATP, and 1 mM NADPH. The assays were initiated by adding purified carboxylate reductase and phosphopantetheine transferase or the empty vector control to the assay buffer containing the N7-acetyl-7-aminoheptanoate then incubated at room temperature for 20 min. The consumption of NADPH was monitored by absorbance at 340 nm.

B1: SEQ ID NO 7: Segniliparus rotundus carboxylate reductase, Genbank Accession No. ADG98140.1 (protein, listed as Segniliparus rotundus)
chain: MTQSHTQGPQASAAHSRLARRAAELLATDPQAAATLPDPEVVRQATRPGLRLAERVDAILSGYADRPALGQRSFQTVKDPITGRSSVELLPTFDTITYRELRERATAIASDLAHHPQAPAKPGDFLASIGFISVDYVAIDIAGVFAGLTAVPLQTGATLATLTAITAETAPTLFAASIEHLPTAVDAVLATPSVRRLLVFDYRAGSDEDREAVEAAKRKIADAGSSVLVDVLDEVIARGKSAPKAPLPPATDAGDDSLSLLIYTSGSTGTPKGAMYPERNVAHFWGGVWAAAFDEDAAPPVPAINITFLPLSHVASRLSLMPTLARGGLMHFVAKSDLSTLFEDLKLARPTNLFLVPRVVEMLYQHYQSELDRRGVQDGTREAEAVKDDLRTGLLGGRILTAGFGSAPLSAELAGFIESLLQIHLVDGYGSTEAGPVWRDGYLVKPPVTDYKLIDVPELGYFSTDSPHPRGELAIKTQTILPGYYKRPETTAEVFDEDGFYLTGDVVAQIGPEQFAYVDRRKNVLKLSQGEFVTLAKLEAAYSSSPLVRQLFVYGSSERSYLLAVIVPTPDALKKFGVGEAAKAALGESLQKIARDEGLQSYEVPRDFIIETDPFTVENGLLSDARKSLRPKLKEHYGERLEAMYKELADGQANELRDIRRGVQQRPTLETVRRAAAAMLGASAAEIKPDAHFTDLGGDSLSALTFSNFLHDLFEVDVPVGVIVSAANTLGSVAEHIDAQLAGGRARPTFATVHGKGSTTIKASDLTLDKFIDEQTLEAAKHLPKPADPPRTVLLTGANGWLGRFLALEWLERLAPAGGKLITIVRGKDAAQAKARLDAAYESGDPKLAGHYQDLAATTLEVLAGDFSEPRLGLDEATWNRLADEVDFISHPGALVNHVLPYNQLFGPNVAGVAEIIKLAITTRIKPVTYLSTVAVAAGVEPSALDEDGDIRTVSAERSVDEGYANGYGNSKWGGEVLLREAHDRTGLPVRVFRSDMILAHQKYTGQVNATDQFTRLVQSLLATGLAPKSFYELDAQGNRQRAHYDGIPVDFTAESITTLGGDGLEGYRSYNVFNPHRDGVGLDEFVDWLIEAGHPITRIDDYDQWLSRFETSLRGLPESKRQASVLPLLHAFARPGPAVDGSPFRNTVFRTDVQKAKIGAEHDIPHLGKALVLKYADDIKQLGLL
[1]
  acceptance of pimelate semialdehyde as substrate, forming heptanedial (consumption of NADPH, absorbance at 340 nm): accepted pimelate semialdehyde as substrate
[2]
  acceptance of pimelate as substrate (consumption of NADPH, absorbance at 340 nm): accepted pimelate as substrate
[3]
  acceptance of N7-acetyl-7-aminoheptanoate as substrate (consumption of NADPH, absorbance at 340 nm): accepted N7-acetyl-7-aminoheptanoate as substrate
